Publication PMC5148612, “Mechanism of cargo-directed Atg8 conjugation during selective autophagy” (eLife, 2016)
Where a chain is given by its changes, count along the chain named. One block for each binder: values may come before it.

Experiments:
Settings in all cases: both partners purified
[1] = molecular target: T1, Atg12~Atg5 (K57E,N84E) conjugate (S. cerevisiae, UniProt P38316 1-186; Q12380 1-294, K57E | N84E, conjugated to Atg5 | conjugated to Atg12); experiment: SEC; separately purified proteins mixed in a molar ratio 1:1 for 30 min at 4°C or on ice; the resulting complex purified on Superdex S200 16/60
T1 construct: Atg12, S. cerevisiae; Atg5, S. cerevisiae; source: E. coli Rosetta pLysS, purified
T1 sequence (looked up) 1: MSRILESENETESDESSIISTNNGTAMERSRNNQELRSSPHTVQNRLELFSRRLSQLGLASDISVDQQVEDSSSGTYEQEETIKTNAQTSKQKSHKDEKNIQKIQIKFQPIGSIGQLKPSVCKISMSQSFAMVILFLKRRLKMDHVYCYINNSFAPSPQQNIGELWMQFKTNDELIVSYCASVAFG
T1 sequence (looked up) 2: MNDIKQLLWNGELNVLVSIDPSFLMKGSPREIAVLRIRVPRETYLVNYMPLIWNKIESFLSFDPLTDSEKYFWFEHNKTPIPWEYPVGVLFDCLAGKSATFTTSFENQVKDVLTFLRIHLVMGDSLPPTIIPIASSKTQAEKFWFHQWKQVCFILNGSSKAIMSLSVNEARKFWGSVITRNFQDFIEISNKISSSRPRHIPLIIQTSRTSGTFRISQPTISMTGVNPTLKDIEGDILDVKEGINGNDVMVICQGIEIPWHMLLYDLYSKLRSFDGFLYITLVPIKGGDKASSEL

[2] = molecular target: T2, Atg12~Atg5 conjugate (S. cerevisiae, UniProt P38316 1-186; Q12380 1-294, conjugated to Atg5 (Atg12~Atg5 protein conjugate) | conjugated to Atg12); experiment: as above
T2 construct: Atg12, S. cerevisiae; Atg5, S. cerevisiae; the two chains are covalently joined; source: E. coli Rosetta pLysS, co-expression of 6xHis-Atg5, Atg12, Atg7 and Atg10, purified
T2 sequence (looked up) 1: T1 sequence (looked up) 1
T2 sequence (looked up) 2: T1 sequence (looked up) 2 with E57K, E84N

[3] = molecular target: T3, Atg12~Atg5 (N84E) conjugate (S. cerevisiae, UniProt P38316 1-186; Q12380 1-294, N84E, conjugated to Atg5 | conjugated to Atg12); experiment: as above
T3 construct: Atg12, S. cerevisiae; Atg5, S. cerevisiae; source: E. coli Rosetta pLysS, purified
T3 sequence (looked up) 1: T1 sequence (looked up) 1
T3 sequence (looked up) 2: T1 sequence (looked up) 2 with E57K

[4] = molecular target: T4, Atg12~Atg5 (K57E) conjugate (S. cerevisiae, UniProt P38316 1-186; Q12380 1-294, K57E, conjugated to Atg5 | conjugated to Atg12); experiment: as above
T4 construct: Atg12, S. cerevisiae; Atg5, S. cerevisiae; source: E. coli Rosetta pLysS, purified
T4 sequence (looked up) 1: T1 sequence (looked up) 1
T4 sequence (looked up) 2: T1 sequence (looked up) 2 with E84N

[5] = molecular target: T5, Atg12~Atg5-Atg16-mCherry complex (S. cerevisiae, UniProt P38316 1-186; Q12380 1-294; Q03818 1-150, conjugated to Atg5 (Atg12~Atg5 protein conjugate) | conjugated to Atg12); experiment: microscopy-based protein-protein interaction assay on beads; glutathione beads coated with GST baits at 20 µM, Atg12~Atg5-Atg16-mCherry 5 µM, 25 mM HEPES pH 7.5, 150 mM NaCl, 1 mM DTT, imaged at equilibrium by spinning disc microscopy (Figures 1B, 2F, 2G)
T5 construct: Atg12, S. cerevisiae; Atg5, S. cerevisiae; Atg16, S. cerevisiae; also called Cx; source: E. coli Rosetta pLysS; Atg12~Atg5 conjugate mixed 1:1 with purified Atg16-mCherry, purified by size exclusion chromatography; not shown: His6, N-terminal, cleaved; mCherry, C-terminal, kept; copies: + +
T5 sequence (looked up) 1: T1 sequence (looked up) 1
T5 sequence (looked up) 2: T1 sequence (looked up) 2 with E57K, E84N
T5 sequence (looked up) 3: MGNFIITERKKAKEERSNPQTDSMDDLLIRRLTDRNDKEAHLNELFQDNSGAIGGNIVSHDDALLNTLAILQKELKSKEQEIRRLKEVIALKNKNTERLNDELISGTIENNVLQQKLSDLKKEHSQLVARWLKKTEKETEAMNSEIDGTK

[6] = molecular target: T2, Atg12~Atg5 conjugate; experiment: pull-down; GST-fused bait 5 µM and GST-free prey 5 µM with glutathione Sepharose 4B, 1 hr at 4°C; washed with 25 mM HEPES pH 7.5, 150 mM NaCl, 1 mM DTT and 0.1% TritonX100; Western blot (Figures 1A, 1C, 2A, 2C)
[7] = molecular target: T6, Atg12~Atg5-Atg16 complex (S. cerevisiae, UniProt P38316 1-186; Q12380 1-294; Q03818 1-150, conjugated to Atg5 (Atg12~Atg5 protein conjugate) | conjugated to Atg12); experiment: as above
T6 construct: Atg12, S. cerevisiae; Atg5, S. cerevisiae; Atg16, S. cerevisiae; conjugate made by co-expression with Atg7 and Atg10 (SMC131); details in Romanov et al., 2012; also called E3-like complex; source: E. coli Rosetta pLysS; Atg12~Atg5 conjugate mixed 1:1 with purified Atg16, purified by size exclusion chromatography; not shown: GST, N-terminal, cleaved; copies: + +
T6 sequence (looked up) 1: T1 sequence (looked up) 1
T6 sequence (looked up) 2: T1 sequence (looked up) 2 with E57K, E84N
T6 sequence (looked up) 3: T5 sequence (looked up) 3

binding result [1]: binds
binding result [2]: binds
binding result [3]: binds
binding result [4]: binds
B1: Atg16-mCherry (natural protein, S. cerevisiae, UniProt Q03818 1-150, looked up)
chain: T5 sequence (looked up) 3
notes: Atg16, S. cerevisiae; also called 6xHis-Atg16-mCherry; source: E. coli Rosetta pLysS, purified (Ni-NTA, TEV, Superdex 200); not shown: His6, N-terminal, cleaved; mCherry, C-terminal, kept

binding result [5]: binds
binding result [6]: binds
binding result [7]: binds
B2: GST-Atg19 (natural protein, S. cerevisiae, UniProt P35193 1-415, looked up)
chain: MNNSKTNQQMNTSMGYPLTVYDECNKFQLIVPTLDANIMLWCIGQLSLLNDSNGCKHLFWQPNDKSNVRILLNNYDYGHLFKYLQCQRKCSVYIGEGTLKKYNLTISTSFDNFLDLTPSEEKESLCREDAHEDPVSPKAGSEEEISPNSTSNVVVSRECLDNFMKQLLKLEESLNKLELEQKVTNKEPNHRISGTIDIPEDRSELVNFFTELKTVKQLEDVFQRYHDYERLSQECDSKTEIASDHSKKETKIEVEPPNERSLQITMNQRDNSLYFQLFNNTNSVLAGNCKLKFTDAGDKPTTQIIDMGPHEIGIKEYKEYRYFPYALDLEAGSTIEIENQYGEVIFLGKYGSSPMINLRPPSRLSAESLQASQEPFYSFQIDTLPELDDSSIISTSISLSYDGDDNEKALTWEEL
notes: Atg19, S. cerevisiae cargo receptor; also called full length GST-Atg19; Atg19 full length; source: E. coli Rosetta pLysS, purified; not shown: GST, N-terminal, kept
